The results in this text go back to US20090298765A1 (Takeda / Millennium, published 2009).

What is called IC50 is the point on the concentration scale where inhibition reaches its midpoint. A low value points to higher potency.

Starred links: 1 amine or outer side, 2 acyl side, 3 side chain; linkers in the order of their positions; H or OH if unused. Non-standard residues stand in square brackets, D forms with d. No end group written: not given here. Ala(2-Qui) = 2-quinolylalanine, O=C([C@H](Cc1ccc2ccccc2n1)N[*:1])[*:2]; Phe(3,4-Cl2) = N[C@@H](Cc1ccc(Cl)c(Cl)c1)C(=O)O; 1Nal = N[C@@H](Cc1cccc2ccccc12)C(=O)O; 2Nal = N[C@@H](Cc1ccc2ccccc2c1)C(=O)O; Arg(Me) = CNC(=N)NCCC[C@H](N)C(=O)O; Bta = N[C@@H](Cc1csc2ccccc12)C(=O)O; Cha = N[C@@H](CC1CCCCC1)C(=O)O; azaGly = NNC(=O)O

Experiment [1] deals with T1, human OT7T175 (metastin receptor) (human, UniProt Q969F8 1-398). The experiment can be described thus: cell-based or functional assay.
T1 sequence (Q969F8 whole entry L364H): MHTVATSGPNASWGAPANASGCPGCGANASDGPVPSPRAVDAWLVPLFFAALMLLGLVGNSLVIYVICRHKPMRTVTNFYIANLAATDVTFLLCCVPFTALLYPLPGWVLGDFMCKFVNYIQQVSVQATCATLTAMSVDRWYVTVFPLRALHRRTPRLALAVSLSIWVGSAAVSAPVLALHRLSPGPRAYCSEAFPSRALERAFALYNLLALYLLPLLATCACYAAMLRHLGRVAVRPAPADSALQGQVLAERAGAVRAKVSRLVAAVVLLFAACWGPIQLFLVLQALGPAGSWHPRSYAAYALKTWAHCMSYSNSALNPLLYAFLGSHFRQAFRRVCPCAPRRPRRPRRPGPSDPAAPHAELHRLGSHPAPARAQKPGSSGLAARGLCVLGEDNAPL
Experiment [2] concerns the target T1, human OT7T175 (metastin receptor). Nature of the experiment: cell-based or functional assay. The source holds these as a separate data set.
Experiment [3] shares this target. Nature of the experiment: competition with Cy-5 metastin (40-54) on hOT7T175-CHO cells, FMAT.

B1: [D-Tyr1,Ala4,Arg(Me)9]MS10 (peptide)
peptide: [dY]NWASFGL[Arg(Me)]F-NH2
modifications: N-terminus assumed
SMILES: CNC(=N)NCCC[C@H](NC(=O)[C@H](CC(C)C)NC(=O)CNC(=O)[C@H](Cc1ccccc1)NC(=O)[C@H](CO)NC(=O)[C@H](C)NC(=O)[C@H](Cc1c[nH]c2ccccc12)NC(=O)[C@H](CC(N)=O)NC(=O)[C@H](N)Cc1ccc(O)cc1)C(=O)N[C@@H](Cc1ccccc1)C(N)=O
notes: also called Compound No. 210
For the molecule B1, in experiment [1], the “Ca ion level-increasing activity (FLIPR)” value is 1 x Metastin (1-54). Further, in experiment [2], the “Ca ion level-increasing activity (FLIPR, 40 s)” value is 9.3 EC50/MS10 EC50. Also, the IC50 in experiment [3] worked out at 730 nM.

B2: [D-Tyr1,Val3,AzaGly7,Arg(Me)9]MS10 (peptide)
peptide: [dY]NVNSF[azaGly]L[Arg(Me)]F-NH2
modifications: N-terminus assumed
SMILES: CNC(=N)NCCC[C@H](NC(=O)[C@H](CC(C)C)NC(=O)NNC(=O)[C@H](Cc1ccccc1)NC(=O)[C@H](CO)NC(=O)[C@H](CC(N)=O)NC(=O)[C@@H](NC(=O)[C@H](CC(N)=O)NC(=O)[C@H](N)Cc1ccc(O)cc1)C(C)C)C(=O)N[C@@H](Cc1ccccc1)C(N)=O
notes: also called Compound No. 234
With B2, the “Ca ion level-increasing activity (FLIPR)” value in experiment [1] is 1 x Metastin (1-54). For the same molecule, the IC50 in experiment [3] is 47 nM.
For [dY]NWNSFGV[Arg(Me)]F-NH2 (also called Compound No. 213) [[D-Tyr1,Val8,Arg(Me)9]MS10] the same measures were 2 x Metastin (1-54) and 190 nM.

B3: [D-Tyr1,Cha3,6,Arg(Me)9,Trp10]MS10 (peptide)
peptide: [dY]N[Cha]NS[Cha]GL[Arg(Me)]W-NH2
modifications: N-terminus assumed
SMILES: CNC(=N)NCCC[C@H](NC(=O)[C@H](CC(C)C)NC(=O)CNC(=O)[C@H](CC1CCCCC1)NC(=O)[C@H](CO)NC(=O)[C@H](CC(N)=O)NC(=O)[C@H](CC1CCCCC1)NC(=O)[C@H](CC(N)=O)NC(=O)[C@H](N)Cc1ccc(O)cc1)C(=O)N[C@@H](Cc1c[nH]c2ccccc12)C(N)=O
notes: also called Compound No. 182
Regarding B3, the “Ca ion level-increasing activity (FLIPR)” value in experiment [1] is 5 x Metastin (1-54). Also, the IC50 in experiment [3] was 98 nM.
For [dY][2Nal]NSF[azaGly]L[Arg(Me)]F-NH2 (also called Compound No. 255) [des(1)-[D-Tyr2,Nal(2)3,AzaGly7,Arg(Me)9]MS10] the same measures were 1 x Metastin (1-54) and 33 nM.

B4: [Ala(2-Qui)10]MS10 (peptide)
peptide: YNWNSFGLR[Ala(2-Qui)]-NH2
modifications: N-terminus assumed
SMILES: CC(C)C[C@H](NC(=O)CNC(=O)[C@H](Cc1ccccc1)NC(=O)[C@H](CO)NC(=O)[C@H](CC(N)=O)NC(=O)[C@H](Cc1c[nH]c2ccccc12)NC(=O)[C@H](CC(N)=O)NC(=O)[C@@H](N)Cc1ccc(O)cc1)C(=O)N[C@@H](CCCNC(=N)N)C(=O)N[C@@H](Cc1ccc2ccccc2n1)C(N)=O
notes: also called Compound No. 201
Consider B4, for which the “Ca ion level-increasing activity (FLIPR)” value in experiment [1] is 1 x Metastin (1-54). In experiment [3], this molecule returned a half-maximal inhibitory concentration (IC50) of 820 nM.

B5: [Ala(3-Bzt)10]MS10 (peptide)
peptide: YNWNSFGLR[Bta]-NH2
modifications: N-terminus assumed
SMILES: CC(C)C[C@H](NC(=O)CNC(=O)[C@H](Cc1ccccc1)NC(=O)[C@H](CO)NC(=O)[C@H](CC(N)=O)NC(=O)[C@H](Cc1c[nH]c2ccccc12)NC(=O)[C@H](CC(N)=O)NC(=O)[C@@H](N)Cc1ccc(O)cc1)C(=O)N[C@@H](CCCNC(=N)N)C(=O)N[C@@H](Cc1csc2ccccc12)C(N)=O
notes: also called Compound No. 189
As for B5, the “Ca ion level-increasing activity (FLIPR)” value in experiment [1] was 10 x Metastin (1-54). In experiment [3], this molecule registered an IC50 of 230 nM.

B6: [D-Tyr1,Cha3,AzaGly7,Arg(Me)9]MS10 (peptide)
peptide: [dY]N[Cha]NSF[azaGly]L[Arg(Me)]F-NH2
modifications: N-terminus assumed
SMILES: CNC(=N)NCCC[C@H](NC(=O)[C@H](CC(C)C)NC(=O)NNC(=O)[C@H](Cc1ccccc1)NC(=O)[C@H](CO)NC(=O)[C@H](CC(N)=O)NC(=O)[C@H](CC1CCCCC1)NC(=O)[C@H](CC(N)=O)NC(=O)[C@H](N)Cc1ccc(O)cc1)C(=O)N[C@@H](Cc1ccccc1)C(N)=O
notes: also called Compound No. 190
In the case of B6, in experiment [1], the “Ca ion level-increasing activity (FLIPR)” value is 10 x Metastin (1-54). Also, the 50% inhibitory concentration (IC50) in experiment [3] came out at 12 nM.
The corresponding values for YNWNSXGLRF (D-Tyr1; Cha6; Arg(Me)9; C-terminal amide, also called Compound No. 203) [[D-Tyr1,Cha6,Arg(Me)9]MS10] are 10 x Metastin (1-54) and 37 nM.

B7: [D-Tyr1,Nal(2)3,AzaGly7,Arg(Me)9]MS10 (peptide)
peptide: [dY]N[2Nal]NSF[azaGly]L[Arg(Me)]F-NH2
modifications: N-terminus assumed
SMILES: CNC(=N)NCCC[C@H](NC(=O)[C@H](CC(C)C)NC(=O)NNC(=O)[C@H](Cc1ccccc1)NC(=O)[C@H](CO)NC(=O)[C@H](CC(N)=O)NC(=O)[C@H](Cc1ccc2ccccc2c1)NC(=O)[C@H](CC(N)=O)NC(=O)[C@H](N)Cc1ccc(O)cc1)C(=O)N[C@@H](Cc1ccccc1)C(N)=O
notes: also called Compound No. 246
With B7, the “Ca ion level-increasing activity (FLIPR)” value in experiment [1] was 2 x Metastin (1-54). Moreover, the IC50 in experiment [3] turned out to be 7.1 nM.

B8: des(1)-[D-Tyr2,D-Trp3,AzaGly7,Arg(Me)9]MS10 (peptide)
peptide: [dY][dW]NSF[azaGly]L[Arg(Me)]F-NH2
modifications: N-terminus assumed
SMILES: CNC(=N)NCCC[C@H](NC(=O)[C@H](CC(C)C)NC(=O)NNC(=O)[C@H](Cc1ccccc1)NC(=O)[C@H](CO)NC(=O)[C@H](CC(N)=O)NC(=O)[C@@H](Cc1c[nH]c2ccccc12)NC(=O)[C@H](N)Cc1ccc(O)cc1)C(=O)N[C@@H](Cc1ccccc1)C(N)=O
notes: also called Compound No. 242
As for B8, the “Ca ion level-increasing activity (FLIPR)” value in experiment [1] is 2 x Metastin (1-54). Moreover, in experiment [2], the “Ca ion level-increasing activity (FLIPR, 40 s)” value was found to be 1.4 EC50/MS10 EC50. Further, in experiment [3], the 50% inhibitory concentration (IC50) is 70 nM.

B9: [D-Tyr1,Nal(1)3,AzaGly7,Arg(Me)9]MS10 (peptide)
peptide: [dY]N[1Nal]NSF[azaGly]L[Arg(Me)]F-NH2
modifications: N-terminus assumed
SMILES: CNC(=N)NCCC[C@H](NC(=O)[C@H](CC(C)C)NC(=O)NNC(=O)[C@H](Cc1ccccc1)NC(=O)[C@H](CO)NC(=O)[C@H](CC(N)=O)NC(=O)[C@H](Cc1cccc2ccccc12)NC(=O)[C@H](CC(N)=O)NC(=O)[C@H](N)Cc1ccc(O)cc1)C(=O)N[C@@H](Cc1ccccc1)C(N)=O
notes: also called Compound No. 245
For B9, in experiment [1], the “Ca ion level-increasing activity (FLIPR)” value was 1 x Metastin (1-54). Besides, the IC50 in experiment [3] came out at 98 nM.

B10: des(1)-[D-Tyr2,Arg(Me)9]MS10 (peptide)
peptide: [dY]WNSFGL[Arg(Me)]F-NH2
modifications: N-terminus assumed
SMILES: CNC(=N)NCCC[C@H](NC(=O)[C@H](CC(C)C)NC(=O)CNC(=O)[C@H](Cc1ccccc1)NC(=O)[C@H](CO)NC(=O)[C@H](CC(N)=O)NC(=O)[C@H](Cc1c[nH]c2ccccc12)NC(=O)[C@H](N)Cc1ccc(O)cc1)C(=O)N[C@@H](Cc1ccccc1)C(N)=O
notes: also called Compound No. 217
With B10, in experiment [1], the “Ca ion level-increasing activity (FLIPR)” value is 20 x Metastin (1-54). The “Ca ion level-increasing activity (FLIPR, 40 s)” value in experiment [2] worked out at 3.1 EC50/MS10 EC50. This molecule registered an IC50 in experiment [3] of 250 nM.
The corresponding values for [dY]TNSF[azaGly]L[Arg(Me)]F-NH2 (also called Compound No. 241) [des(1)-[D-Tyr2,Thr3,AzaGly7,Arg(Me)9]MS10] are 1 x Metastin (1-54), 5.3 EC50/MS10 EC50 and 56 nM.
As for [dY][dW]NSFGL[Arg(Me)]F-NH2 (also called Compound No. 224) [des(1)-[D-Tyr2,D-Trp3,Arg(Me)9]MS10], the “Ca ion level-increasing activity (FLIPR)” value in experiment [1] was 2 x Metastin (1-54). In experiment [3], this molecule showed a half-inhibitory concentration (IC50) of 140 nM.
The corresponding values for YNWNSFGLR[Phe(3,4-Cl2)]-NH2 (also called Compound No. 199) [[Phe(3,4Cl2)10]MS10] are 3 x Metastin (1-54) and 470 nM.
